According to patent US20170355733A1:

B1: GB1#-Cont.1d (designed binder)
chain: GPLGSTTYKLILNGKTLTGYTTAIAADAATAEIVLKQFANDNGIDGEWTYDDATKTFTVTE
B2: GB1#-D36V.1d (designed binder)
chain: GPLGSTTYKLILNGKTLTGYTTAIAADAATAEIVLKQFANVNGIDGEWTYDDATKTFTVTE
B3: GB1#-T17A.1d (designed binder)
chain: GPLGSTTYKLILNGKTLTGYTAAIAADAATAEIVLKQFANDNGIDGEWTYDDATKTFTVTE
B4: GB1#-T17V.1d (designed binder)
chain: GPLGSTTYKLILNGKTLTGYTVAIAADAATAEIVLKQFANDNGIDGEWTYDDATKTFTVTE

Tests used:
[1] = biological target: aTNF-Fab (Fab fragment of anti-human TNFα monoclonal IgG, generic name Infliximab, product name Remicade); experiment: SPR Biacore 3000, aTNF-Fab amine-coupled on CM5, peptide flowed, 25 °C, pH 7.4, 1:1 fit
[2] = biological target: aTNF-Fab (Fab fragment of anti-human TNFα monoclonal IgG, generic name Infliximab, product name Remicade); experiment: affinity chromatography on aTNF-Fab-immobilized column, linear pH gradient 5.5 to 2.5, pH at elution peak top
[3] = biological target: aTNF-Fab (Fab fragment of anti-human TNFα monoclonal IgG, generic name Infliximab, product name Remicade); experiment: affinity constant KA for aTNF-Fab, summing up Table 2 (method not shown in the excerpt)

| Ka [1] | koff [1] | kon [1] | Dissociation pH [2] | Ka [3] | Binder |
| --- | --- | --- | --- | --- | --- |
| 2.45e+06 M⁻¹ | 0.017 s⁻¹ | 41700 M⁻¹ s⁻¹ | 2.6 pH |  | B1 |
| 510000 M⁻¹ | 0.064 s⁻¹ | 32800 M⁻¹ s⁻¹ | 3.4 pH | > 500000 M⁻¹ | B2 |
| 880000 M⁻¹ | 0.0285 s⁻¹ | 25000 M⁻¹ s⁻¹ | 2.85 pH | > 500000 M⁻¹ | B3 |
| 570000 M⁻¹ | 0.0335 s⁻¹ | 19100 M⁻¹ s⁻¹ | 3 pH | > 500000 M⁻¹ | B4 |
